Experiment [1] concerns the target T1, DLL1 antigen (recombinant DLL1 protein) (human, UniProt O00548 18-540, limits assumed).
T1 construct: also called Delta-like 1
T1 sequence (looked up): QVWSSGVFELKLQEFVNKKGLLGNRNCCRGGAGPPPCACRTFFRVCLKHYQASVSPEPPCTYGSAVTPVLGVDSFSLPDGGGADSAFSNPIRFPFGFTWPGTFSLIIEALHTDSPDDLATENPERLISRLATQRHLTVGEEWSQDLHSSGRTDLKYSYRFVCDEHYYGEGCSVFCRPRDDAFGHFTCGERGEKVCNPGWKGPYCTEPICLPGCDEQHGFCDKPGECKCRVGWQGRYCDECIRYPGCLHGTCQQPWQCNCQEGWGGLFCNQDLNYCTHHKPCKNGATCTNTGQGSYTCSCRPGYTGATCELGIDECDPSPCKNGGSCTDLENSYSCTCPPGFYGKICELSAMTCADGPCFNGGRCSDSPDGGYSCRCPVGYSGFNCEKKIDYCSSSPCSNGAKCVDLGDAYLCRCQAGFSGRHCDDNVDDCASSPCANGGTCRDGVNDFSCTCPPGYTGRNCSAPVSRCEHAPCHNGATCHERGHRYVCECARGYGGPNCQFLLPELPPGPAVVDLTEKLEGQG
The experiment can be described thus: sandwich ELISA, capture AbD33906, detection AbD33906-HRP, DLL1 2 ug/ml. Background: ELISA stands for enzyme-linked immunosorbent assay.
Procedure: (§1) As control coating a-Fd (Bio-Rad antibodies, STAR126) at 5 μg/ml in PBS was used. Per well a volume of 20 μl coating solution was used. The Polystyrene ELISA plates were then incubated overnight at 4° C. with a closed lid. […] Subsequently, blocking of non-specific binding sites was performed with 100 μl per well of PBST containing 5% (w/v) BSA (Sigma-Aldrich, A7906-100). This blocking step was conducted at RT for 1-2 h. After removal of the blocking solution, five washes with PBST were performed. Thereafter, 2 μg/ml DLL1 antigen in PBST were added or PBST only (20 μl per well, triplicates were prepared). Incubation with the DLL1 antigen solution or PBST was performed at RT for 1 h. Next, the DLL1 antigen solution or PBST were removed and five washes with PBST were performed. […] After removal of this solution, ten washes with PBST were performed. […] For detection in the ELISA reader (Tecan Infinite M1000Pro Reader, Tecan Austria GmbH) excitation was performed at 320±25 nm and emission was detected at 430±35 nm.

For experiment [2], the target named is T1, DLL1 antigen (recombinant DLL1 protein). The experiment can be described thus: sandwich ELISA, capture AbD33906, detection AbD33905-HRP, DLL1 2 ug/ml.
Procedure: as §1
Experiment [3] shares this target. Put plainly: sandwich ELISA, capture AbD33905, detection AbD33906-HRP, DLL1 2 ug/ml.
Procedure: as §1
The target is the same in experiment [4]. The experiment can be described thus: sandwich ELISA, capture AbD33905, detection AbD33905-HRP, DLL1 2 ug/ml.
Procedure: as §1
In experiment [5] the target is N1-CD33-His6. The experiment can be described thus: ELISA on antigen coated at 5 ug/ml, anti-Strep-HRP secondary antibody.
Procedure: (§2) The binding specificity of AbD33905 in form of a bivalent Fab fragment fused to alkaline phosphatase followed by a FLAG®-tag and Twin-Strep®-tag was tested in the following ELISA:
(§3) Per well a volume of 20 μl coating solution was used. The Polystyrene ELISA plates were then incubated overnight at 4° C. with a closed lid. […] Subsequently, blocking of non-specific binding sites was performed with 100 μl per well of PBST containing 5% (w/v) non-fat dry milk. This blocking step was conducted at RT for 1-2 h. After removal of the blocking solution, five washes with PBST were performed. Thereafter, AbD33905 in form of a bivalent Fab fragment fused to alkaline phosphatase followed by a FLAG®-tag and Twin-Strep®-tag in PBST was added (20 μl per well). Incubation with this AbD33905 Fab fragment was performed at RT for 1 h. Next, the AbD33905 Fab fragment containing solution was removed and five washes with PBST were performed. Thereafter 20 μl/well of 2 μg/ml anti-Strep-HRP secondary antibody (Bio-Rad antibodies, MCA2489P, 1:5000) in HISPEC assay diluent (Bio-Rad Antibodies, BUF049) were added and incubated at RT for 1 h. After removal of this solution, ten washes with PBST were performed. […] For detection in the ELISA reader (Tecan Infinite M1000Pro Reader, Tecan Austria GmbH) excitation was performed at 320±25 nm and emission was detected at 430±35 nm.
The target in experiment [6] is T1, DLL1 antigen (recombinant DLL1 protein). The description is as above.
Procedure: as §2, §3
For experiment [7], the target named is GST. The experiment is described as above.
Procedure: as §2, §3
Experiment [8] addresses bovine serum albumin (BSA) (bovine, UniProt P02769 25-607). The description is as above.
Procedure: as §2, §3

bovine serum albumin (BSA), sequence (P02769 25-607 limits assumed): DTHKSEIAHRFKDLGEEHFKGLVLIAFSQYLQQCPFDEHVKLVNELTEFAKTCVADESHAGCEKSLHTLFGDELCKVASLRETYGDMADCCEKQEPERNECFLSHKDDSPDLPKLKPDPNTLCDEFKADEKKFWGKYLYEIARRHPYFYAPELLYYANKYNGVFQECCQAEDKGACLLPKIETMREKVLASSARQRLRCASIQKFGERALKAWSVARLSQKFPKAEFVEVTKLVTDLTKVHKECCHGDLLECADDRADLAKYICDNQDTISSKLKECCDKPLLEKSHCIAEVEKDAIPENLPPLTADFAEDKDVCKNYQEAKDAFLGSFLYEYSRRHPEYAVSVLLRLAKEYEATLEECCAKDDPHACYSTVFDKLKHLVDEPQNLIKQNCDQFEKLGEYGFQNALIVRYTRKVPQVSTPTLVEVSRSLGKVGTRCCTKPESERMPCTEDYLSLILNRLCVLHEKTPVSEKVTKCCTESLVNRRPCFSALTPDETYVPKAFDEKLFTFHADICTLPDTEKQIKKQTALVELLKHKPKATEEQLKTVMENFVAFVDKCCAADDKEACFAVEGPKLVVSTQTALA
GST, sequence (P08515 2-218): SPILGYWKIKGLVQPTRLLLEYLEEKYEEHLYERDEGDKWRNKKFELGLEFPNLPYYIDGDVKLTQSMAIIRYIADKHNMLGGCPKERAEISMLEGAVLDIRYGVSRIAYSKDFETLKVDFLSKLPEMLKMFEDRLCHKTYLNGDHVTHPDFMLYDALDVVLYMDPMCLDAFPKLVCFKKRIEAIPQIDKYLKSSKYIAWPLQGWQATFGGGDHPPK

B1: AbD33906 (Fab fragment, monovalent) (Fab, V domains shown)
VH: QVQLVQSGAEVKKPGSSVKVSCKASGGTFSSYAISWVRQAPGQGLEWMGGIIPQFGIANYAQKFQGRVTITADESTSTAYMELSSLRSEDTAVYYCAREGYSDYSAFDYWGQGTLVTVSS
VL: DIALTQPASVSGSPGQSITISCTGTSSDVGTYNYVNWYQQHPGKAPKVMIYRVSNRPSGVSNRFSGSKSGNTASLTISGLQAEDEADYYCSSWDEHSYVFGGGTKLTVLG
notes: also called AbD33906 Fab fragments
Take B1: the “emission value DLL1 antigen/emission value PBST” value in experiment [1] came to 7 ratio; in experiment [2] it was 132 ratio.

B2: AbD33905 (Fab fragment, monovalent) (Fab, V domains shown)
VH: EVQLLESGGGLVQPGGSLRLSCAASGFTFSSYAMHWVRQAPGKGLEWVSFISSGGSTTYYADSVKGRFTISRDNSKNTLYLQMNSLRAEDTAVYYCARFRSGYFDYWGQGTLVTVSS
VL: DIVMTQSPLSLPVTPGEPASISCRSSQSLVHSNGADYLNWYLQKPGQSPQLLIYKGSNRDSGVPDRFSGSGSGTDFTLKISRVEAEDVGVYYCQQGYDFPPFTFGQGTKVEIKR
notes: Monovalent Fab; also called Ab33905; monovalent AbD33905
B2: the “emission value DLL1 antigen/emission value PBST” value in experiment [3] worked out at 66 ratio; in experiment [4], 8 ratio.

B3: AbD33905 in form of a bivalent Fab fragment fused to alkaline phosphatase followed by a FLAG-tag and Twin-Strep-tag (Fab, V domains shown)
VH: EVQLLESGGGLVQPGGSLRLSCAASGFTFSSYAMHWVRQAPGKGLEWVSFISSGGSTTYYADSVKGRFTISRDNSKNTLYLQMNSLRAEDTAVYYCARFRSGYFDYWGQGTLVTVSS
VL: DIVMTQSPLSLPVTPGEPASISCRSSQSLVHSNGADYLNWYLQKPGQSPQLLIYKGSNRDSGVPDRFSGSGSGTDFTLKISRVEAEDVGVYYCQQGYDFPPFTFGQGTKVEIKR
notes: it is put on the heavy chain here; also called AbD33905 bivalent Fab fragment; not shown: alkaline phosphatase, then FLAG-tag and Twin-Strep-tag
As for B3, the Emission data worked out at 46 arbitrary units in experiment [5], 15500 arbitrary units in experiment [6], 70 arbitrary units in experiment [7] and 71 arbitrary units in experiment [8].

The values are drawn from patent US20250052768A1 (UNIVERSIT T HEIDELBERG, published 2025).
